Measurements published in US20030157054A1 (Merck KGaA, published 2003).

T1: human epithelial cell adhesion molecule (EpCAM) on the cell surface (human, UniProt P16422 24-314)
T1 construct: whole, on cells; also called KS antigen; KSA
T1 sequence (looked up): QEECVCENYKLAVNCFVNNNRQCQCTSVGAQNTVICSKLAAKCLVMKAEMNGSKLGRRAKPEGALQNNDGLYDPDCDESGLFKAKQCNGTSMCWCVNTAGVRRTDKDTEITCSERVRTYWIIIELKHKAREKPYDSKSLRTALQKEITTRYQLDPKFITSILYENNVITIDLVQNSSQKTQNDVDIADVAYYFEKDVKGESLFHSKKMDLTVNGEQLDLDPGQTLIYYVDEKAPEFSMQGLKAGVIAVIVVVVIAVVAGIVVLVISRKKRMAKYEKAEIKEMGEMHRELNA


Assays:
[1] = biological target: soluble human EpCAM-murine Fc (KSA-muFc) (human) (UniProt P16422); assay: ELISA on plates coated with KSA-muFc; Group 1
[2] = biological target: soluble human EpCAM-murine Fc (KSA-muFc) (human) (UniProt P16422); assay: EpCAM binding assay (ELISA on KSA-muFc)
[3] = biological target: T1, human epithelial cell adhesion molecule …; assay: 125I-labelled protein on EpCAM-positive PC-3 tumor cells, saturation binding with Scatchard analysis
Protocol: Purified KS-1/4 antibodies were iodinated with ¹²⁵I using standard techniques, and increasing concentrations of labeled protein were incubated with the EpCAM-positive cell line PC-3. Saturation binding curves were generated and the dissociation constants were determined by Scatchard analysis.
In addition, the binding of iodinated VK8/VH7 and VK8/VH7-IL2 to EpCAM expressed on the surface of PC-3 tumor cells was compared to binding of iodinated VK0/VH0-IL2, using methods described in Example 1F. Within experimental error, essentially identical binding affinities were found for VK8/VH7 and VK0/VH0, and for VK8/VH7-IL2 and VK0/VH0-IL2.

[4] = biological target: soluble human EpCAM-murine Fc (KSA-muFc) (human) (UniProt P16422); assay: ELISA on plates coated with KSA-muFc; Group 2, control to which the group is normalized
[5] = biological target: soluble human EpCAM-murine Fc (KSA-muFc) (human) (UniProt P16422); assay: ELISA on plates coated with KSA-muFc; Group 2, normalized to VK8/VH7
[6] = biological target: soluble human EpCAM-murine Fc (KSA-muFc) (human) (UniProt P16422); assay: ELISA on plates coated with KSA-muFc; Group 3, normalized to VK8/VH7-IL2
[7] = biological target: soluble human EpCAM-murine Fc (KSA-muFc) (human) (UniProt P16422); assay: SPR (Biacore), EpCAM-muFc coupled to CM5 chip, fusion protein in solution

Row | Molecule | Relative binding (fold-increase in protein concentration required to reach an equivalent level of binding) [5] | Relative binding (fold-increase in protein concentration required to reach an equivalent level of binding) [6] | other results
1 | VK0/VH0 (Hybridoma chKS-1/4) (antibody) |  |  | Relative binding (fold-increase in protein concentration required to reach an equivalent level of binding) [1]: 1 fold
2 | VK6/VH6 (Construct 1) (antibody, V domains shown) VH: QVQLVQSGAEVKKPGESVKISCKASGYTFTNYGMNWVRQAPGKGLEWMGWINTYTGEPTYAQKFQGRVTISLDTSTSTAYLQLSSLRAEDTAVYFCVRFISKGDYWGQGTSVTVSS VL: EIVLTQSPATLSLSPGERVTLTCSASSSVSYMLWYQQKPGQAPKLLIFDTSNLASGIPARFSGSGSGTDYTLTISSLEPEDFAVYYCHQRSGYPYTFGGGTKLEIK |  |  | fold less active in an EpCAM binding assay [2]: > 10 fold
3 | VK8/VH7 (Construct 3) (antibody, V domains shown, Intact antibody with human constant regions (pdHL7 vector); also called KS antibody (Construct 3)) VH: QIQLVQSGAEVKKPGETVKISCKASGYTFTNYGMNWVKQTPGKGLKWMGWINTYTGEPTYADDFKGRFAFSLETSTSTAFLQINNLRSEDTATYFCVRFISKGDYWGQGTSVTVSS VL: EIVLTQSPATLSLSPGERVTLTCSASSSVSYMLWYQQKPGSSPKPWIFDTSNLASGFPARFSGSGSGTSYSLIISSMEAEDAATYYCHQRSGYPYTFGGGTKLEIK |  |  | binding result [3]: binds; Relative binding (fold-increase in protein concentration required to reach an equivalent level of binding) [4]: 1 fold
4 | VK0/VH'369 ('369 chKS-1/4) (antibody, V domains shown) VH: QIQLVQSGPELKKPGETVKISCKASGYTFTNYGMNWVKQTPGKGLKWMGWINTYTGEPTYADDFKGRFAFSLETSASTAFLQIQQPQNMRTMATYFCVRFISKGDYWGQGTSVTVSS VL: QILLTQSPAIMSASPGEKVTMTCSASSSVSYMLWYQQKPGSSPKPWIFDTSNLASGFPARFSGSGSGTSYSLIISSMEAEDAATYYCHQRSGYPYTFGGGTKLEIK |  |  | Relative binding (fold-increase in protein concentration required to reach an equivalent level of binding) [1]: > 30 fold
5 | VK1/VH7 (antibody, V domains shown) VH: QIQLVQSGAEVKKPGETVKISCKASGYTFTNYGMNWVKQTPGKGLKWMGWINTYTGEPTYADDFKGRFAFSLETSTSTAFLQINNLRSEDTATYFCVRFISKGDYWGQGTSVTVSS VL: QIVLTQSPASLAVSPGQRATITCSASSSVSYILWYQQKPGQPPKPWIFDTSNLASGFPSRFSGSGSGTSYTLTINSLEAEDAATYYCHQRSGYPYTFGGGTKVEIK | 1 fold |  | 
6 | VK1/VH1 (antibody, V domains shown) VH: QIQLVQSGPELKKPGSSVKISCKASGYTFTNYGMNWVRQAPGKGLKWMGWINTYTGEPTYADDFKGRFTITAETSTSTLYLQLNNLRSEDTATYFCVRFMSKGDYWGQGTTVTVSS VL: QIVLTQSPASLAVSPGQRATITCSASSSVSYILWYQQKPGQPPKPWIFDTSNLASGFPSRFSGSGSGTSYTLTINSLEAEDAATYYCHQRSGYPYTFGGGTKVEIK | 2 fold |  | 
7 | VK1/VH2.3-IL2 (protein) VL: QIVLTQSPASLAVSPGQRATITCSASSSVSYILWYQQKPGQPPKPWIFDTSNLASGFPSRFSGSGSGTSYTLTINSLEAEDAATYYCHQRSGYPYTFGGGTKVEIK VH: QIQLVQSGPELKKPGSSVKISCKASGYTFTNYGMNWVRQAPGKGLKWMGWINTYTGEPTYADDFKGRFTITAETSTSTLYLQLNNLRSEDTATYFCVRFISAKGDYWGQGTTVTVSS |  | 7 fold | 
8 | VK1/VH2.1-IL2 (protein) VL: QIVLTQSPASLAVSPGQRATITCSASSSVSYILWYQQKPGQPPKPWIFDTSNLASGFPSRFSGSGSGTSYTLTINSLEAEDAATYYCHQRSGYPYTFGGGTKVEIK VH: QIQLVQSGPELKKPGSSVKISCKASGYTFTNYGMNWVRQAPGKGLKWMGWINTYTGEPTYADDFKGRFTITAETSTSTLYLQLNNLRSEDTATYFCVRFIISKGDYWGQGTTVTVSS |  | > 10 fold | 
9 | VK1/VH2 (antibody, V domains shown) VH: QIQLVQSGPELKKPGSSVKISCKASGYTFTNYGMNWVRQAPGKGLKWMGWINTYTGEPTYADDFKGRFTITAETSTSTLYLQLNNLRSEDTATYFCVRFISKGDYWGQGTTVTVSS VL: QIVLTQSPASLAVSPGQRATITCSASSSVSYILWYQQKPGQPPKPWIFDTSNLASGFPSRFSGSGSGTSYTLTINSLEAEDAATYYCHQRSGYPYTFGGGTKVEIK | 1 to 2 fold |  | 
10 | VK1/VH2.2-IL2 (protein) VL: QIVLTQSPASLAVSPGQRATITCSASSSVSYILWYQQKPGQPPKPWIFDTSNLASGFPSRFSGSGSGTSYTLTINSLEAEDAATYYCHQRSGYPYTFGGGTKVEIK VH: QIQLVQSGPELKKPGSSVKISCKASGYTFTNYGMNWVRQAPGKGLKWMGWINTYTGEPTYADDFKGRFTITAETSTSTLYLQLNNLRSEDTATYFCVRFIVSKGDYWGQGTTVTVSS |  | > 10 fold | 
11 | VK1/VH2.5-IL2 (protein) VL: QIVLTQSPASLAVSPGQRATITCSASSSVSYILWYQQKPGQPPKPWIFDTSNLASGFPSRFSGSGSGTSYTLTINSLEAEDAATYYCHQRSGYPYTFGGGTKVEIK VH: QIQLVQSGPELKKPGSSVKISCKASGYTFTNYGMNWVRQAPGKGLKWMGWINTYTGEPTYADDFKGRFTITAETSTSTLYLQLNNLRSEDTATYFCVRFISKGDYWGTGTTVTVSS | 3 to 4 fold |  | 
12 | VK1/VH2-IL2 (protein) VL: QIVLTQSPASLAVSPGQRATITCSASSSVSYILWYQQKPGQPPKPWIFDTSNLASGFPSRFSGSGSGTSYTLTINSLEAEDAATYYCHQRSGYPYTFGGGTKVEIK VH: QIQLVQSGPELKKPGSSVKISCKASGYTFTNYGMNWVRQAPGKGLKWMGWINTYTGEPTYADDFKGRFTITAETSTSTLYLQLNNLRSEDTATYFCVRFISKGDYWGQGTTVTVSS | 1.5 fold |  | koff [7]: 0.00053 s⁻¹; kon [7]: 170000 M⁻¹ s⁻¹

Now from value to molecule, other results behind:

Row | Relative binding (fold-increase in protein concentration required to reach an equivalent level of binding) [5] | Relative binding (fold-increase in protein concentration required to reach an equivalent level of binding) [6] | Molecule | other results
13 | 8 fold |  | VK0/VH1 (antibody, V domains shown) VH: QIQLVQSGPELKKPGSSVKISCKASGYTFTNYGMNWVRQAPGKGLKWMGWINTYTGEPTYADDFKGRFTITAETSTSTLYLQLNNLRSEDTATYFCVRFMSKGDYWGQGTTVTVSS VL: QILLTQSPAIMSASPGEKVTMTCSASSSVSYMLWYQQKPGSSPKPWIFDTSNLASGFPARFSGSGSGTSYSLIISSMEAEDAATYYCHQRSGYPYTFGGGTKLEIK | 
14 |  | 3 fold | VK1/VH2.4-IL2 (protein) VL: QIVLTQSPASLAVSPGQRATITCSASSSVSYILWYQQKPGQPPKPWIFDTSNLASGFPSRFSGSGSGTSYTLTINSLEAEDAATYYCHQRSGYPYTFGGGTKVEIK VH: QIQLVQSGPELKKPGSSVKISCKASGYTFTNYGMNWVRQAPGKGLKWMGWINTYTGEPTYADDFKGRFTITAETSTSTLYLQLNNLRSEDTATYFCVRFISKTGDYWGQGTTVTVSS | 
15 | 5 fold | 2 fold | VK1/VH1-IL2 (protein) VL: QIVLTQSPASLAVSPGQRATITCSASSSVSYILWYQQKPGQPPKPWIFDTSNLASGFPSRFSGSGSGTSYTLTINSLEAEDAATYYCHQRSGYPYTFGGGTKVEIK VH: QIQLVQSGPELKKPGSSVKISCKASGYTFTNYGMNWVRQAPGKGLKWMGWINTYTGEPTYADDFKGRFTITAETSTSTLYLQLNNLRSEDTATYFCVRFMSKGDYWGQGTTVTVSS | koff [7]: 0.0022 s⁻¹; kon [7]: 280000 M⁻¹ s⁻¹
